According to patent publication US20240294593A1 (Genentech, published 2024):

biological target: T1, human PD-1-His (human, UniProt Q15116 25-167, limits assumed); test: Octet
T1 construct: Antigen of the Octet assays; not shown: His tag
T1 sequence (Q15116 25-167 limits assumed): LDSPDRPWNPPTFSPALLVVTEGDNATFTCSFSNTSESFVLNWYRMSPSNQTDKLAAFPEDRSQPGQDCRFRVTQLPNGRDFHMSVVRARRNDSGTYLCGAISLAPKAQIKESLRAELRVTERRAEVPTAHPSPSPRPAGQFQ

Row | Kd [nM] | koff [s⁻¹] | kon [M⁻¹ s⁻¹] | Binder
1 | 36.8 | 0.00454 | 123000 | H1.11_L1 (antibody, human IgG1, kappa, V domains shown, also called VH-S31Q; Kabat 31Q; copies: 2 + 2) VH: EVQLVESGGGLVQPGGSLRLSCAASGFTFSQFGMHWVRQAPGKGLEWVSYISSGSSIIYYADSVKGRFTISRDNAKNSLYLQMNSLRAEDTAVYYCARGGRLVWSPDYWGQGTLVTVSS VL: DIVMTQSPDSLAVSLGERATINCKSSQSLLNSGNQKNYLTWYQQKPGQPPKLLIYWASTRESGVPDRFTGSGSGTDFTLTISSLQAEDVAVYYCQNDYSYPFTFGSGTKLEIKR
2 | 36.9 | 0.00425 | 115000 | H1.10_L1 (antibody, human IgG1, kappa, V domains shown, also called VH-S31A; Kabat 31A; copies: 2 + 2) VH: EVQLVESGGGLVQPGGSLRLSCAASGFTFSAFGMHWVRQAPGKGLEWVSYISSGSSIIYYADSVKGRFTISRDNAKNSLYLQMNSLRAEDTAVYYCARGGRLVWSPDYWGQGTLVTVSS VL: DIVMTQSPDSLAVSLGERATINCKSSQSLLNSGNQKNYLTWYQQKPGQPPKLLIYWASTRESGVPDRFTGSGSGTDFTLTISSLQAEDVAVYYCQNDYSYPFTFGSGTKLEIKR

Second part, the binder before the results:

Row | Binder | Kd [nM] | koff [s⁻¹] | kon [M⁻¹ s⁻¹]
3 | H1.4_L1 (antibody, human IgG1, kappa, V domains shown, also called VH-S30G; Kabat 30G; copies: 2 + 2) VH: EVQLVESGGGLVQPGGSLRLSCAASGFTFGSFGMHWVRQAPGKGLEWVSYISSGSSIIYYADSVKGRFTISRDNAKNSLYLQMNSLRAEDTAVYYCARGGRLVWSPDYWGQGTLVTVSS VL: DIVMTQSPDSLAVSLGERATINCKSSQSLLNSGNQKNYLTWYQQKPGQPPKLLIYWASTRESGVPDRFTGSGSGTDFTLTISSLQAEDVAVYYCQNDYSYPFTFGSGTKLEIKR | 34 | 0.00422 | 124000
4 | H1.7_L1 (antibody, human IgG1, kappa, V domains shown, also called VH-S30K; Kabat 30K; copies: 2 + 2) VH: EVQLVESGGGLVQPGGSLRLSCAASGFTFKSFGMHWVRQAPGKGLEWVSYISSGSSIIYYADSVKGRFTISRDNAKNSLYLQMNSLRAEDTAVYYCARGGRLVWSPDYWGQGTLVTVSS VL: DIVMTQSPDSLAVSLGERATINCKSSQSLLNSGNQKNYLTWYQQKPGQPPKLLIYWASTRESGVPDRFTGSGSGTDFTLTISSLQAEDVAVYYCQNDYSYPFTFGSGTKLEIKR | 52.5 | 0.00545 | 104000
5 | H1.8_L1 (antibody, human IgG1, kappa, V domains shown, also called VH-S30Y; Kabat 30Y) VH: EVQLVESGGGLVQPGGSLRLSCAASGFTFYSFGMHWVRQAPGKGLEWVSYISSGSSIIYYADSVKGRFTISRDNAKNSLYLQMNSLRAEDTAVYYCARGGRLVWSPDYWGQGTLVTVSS VL: DIVMTQSPDSLAVSLGERATINCKSSQSLLNSGNQKNYLTWYQQKPGQPPKLLIYWASTRESGVPDRFTGSGSGTDFTLTISSLQAEDVAVYYCQNDYSYPFTFGSGTKLEIKR | 51.3 | 0.00534 | 104000
6 | H1.6_L1 (antibody, human IgG1, kappa, V domains shown, also called VH-S30H; Kabat 30H; copies: 2 + 2) VH: EVQLVESGGGLVQPGGSLRLSCAASGFTFHSFGMHWVRQAPGKGLEWVSYISSGSSIIYYADSVKGRFTISRDNAKNSLYLQMNSLRAEDTAVYYCARGGRLVWSPDYWGQGTLVTVSS VL: DIVMTQSPDSLAVSLGERATINCKSSQSLLNSGNQKNYLTWYQQKPGQPPKLLIYWASTRESGVPDRFTGSGSGTDFTLTISSLQAEDVAVYYCQNDYSYPFTFGSGTKLEIKR | 48.5 | 0.00529 | 109000
7 | H1.9_L1 (antibody, human IgG1, kappa, V domains shown, also called VH-S31T; Kabat 31T; copies: 2 + 2) VH: EVQLVESGGGLVQPGGSLRLSCAASGFTFSTFGMHWVRQAPGKGLEWVSYISSGSSIIYYADSVKGRFTISRDNAKNSLYLQMNSLRAEDTAVYYCARGGRLVWSPDYWGQGTLVTVSS VL: DIVMTQSPDSLAVSLGERATINCKSSQSLLNSGNQKNYLTWYQQKPGQPPKLLIYWASTRESGVPDRFTGSGSGTDFTLTISSLQAEDVAVYYCQNDYSYPFTFGSGTKLEIKR | 46.9 | 0.00567 | 121000
8 | H1.5_L1 (antibody, human IgG1, kappa, V domains shown, also called VH-S30V; Kabat 30V; copies: 2 + 2) VH: EVQLVESGGGLVQPGGSLRLSCAASGFTFVSFGMHWVRQAPGKGLEWVSYISSGSSIIYYADSVKGRFTISRDNAKNSLYLQMNSLRAEDTAVYYCARGGRLVWSPDYWGQGTLVTVSS VL: DIVMTQSPDSLAVSLGERATINCKSSQSLLNSGNQKNYLTWYQQKPGQPPKLLIYWASTRESGVPDRFTGSGSGTDFTLTISSLQAEDVAVYYCQNDYSYPFTFGSGTKLEIKR | 37.4 | 0.00475 | 127000
